Here are results for three molecules from US20200385465A1 (SHANGHAI NOVAMAB BIOPHARMACEUTICALS, published 2020).

The target in assay [1] is T1, human full-length CD47 protein (human, UniProt Q08722 19-323).
T1 construct: whole, on cells; also called CD47 stably transferred cells; CD47 on the surface of erythrocyte
In words: flow cytometry blocking assay, antibody together with 5 ug hSIRPa (ECD)-Fc-Biotin on hCD47 stable cells, SA-PE detection.

The target of assay [2] is T1, human full-length CD47 protein. Description: flow cytometry blocking assay, antibody together with hSIRPa (ECD)-Fc-Biotin on CD47 stable cells, SA-PE detection.
Assay [3] shares this target. Description: competition flow cytometry on CD47 stably transfected cells, antibody titrated against 5 µg hSIRPa (ECD)-Fc-Biotin.
Experimental: 100 uL was added in each sample, and a negative control (hIgG4) was set at the same time. […] (2) The cells were washed twice with PBS, SA-PE of eBioscience was added. It was incubated for 20 min at 4° C., and the cells were washed twice with PBS and then detected by flow cytometry (BD FACS Calibur), using graphpad prism 6 software for data processing.
Assay [4] concerns the target T2, CD47 (mouse), coated antigen protein (mouse, UniProt Q61735 19-140, limits assumed).
T2 construct: also called mouse CD47; murine-derived CD47
T2 sequence (looked up): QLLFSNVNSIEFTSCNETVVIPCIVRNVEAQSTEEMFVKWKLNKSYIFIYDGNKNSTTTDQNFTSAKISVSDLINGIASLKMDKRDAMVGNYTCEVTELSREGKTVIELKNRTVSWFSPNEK
In words: ELISA, coated antigen, anti-HA and alkaline phosphatase detection.
Experimental: (§1) The specificity of the single domain antibody was determined based on the absorption value.

For assay [5], the target named is T3, CD47 (rat), coated antigen protein (rat, UniProt P97829 19-140, limits assumed).
T3 construct: also called rat CD47; murine-derived CD47
T3 sequence (looked up): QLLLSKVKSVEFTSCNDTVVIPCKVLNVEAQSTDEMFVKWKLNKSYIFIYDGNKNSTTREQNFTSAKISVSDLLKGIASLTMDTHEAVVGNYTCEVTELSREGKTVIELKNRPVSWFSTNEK
Described as above.
Experimental: as §1

With negative control antibody, the percent of cells positive for SIRPa-biotin (quadrant Q2) in the presence of the antibody at 1ug/ml in assay [1] came out at 97.2%. Moreover, in assay [2], the percent of cells positive for SIRPa-biotin (quadrant Q2) in the presence of the antibody was determined as 97.3%.

B1: control antibody B6H12 (antibody)
chain: EVQLVESGGDLVKPGGSLKLSCAASGFTFSGYGMSWVRQTPDKRLEWVATITSGGTYTYYPDSVKGRFTISRDNAKNTLYLQIDSLKSEDTAIYFCARSLAGNAMDYWGQGTSVTVSSGGGGSGGGGSGGGGSDIVMTQSPATLSVTPGDRVSLSCRASQTISDYLHWYQQKSHESPRLLIKFASQSISGIPSRFSGSGSGSDFTLSINSVEPEDVGVYYCQNGHGFPRTFGGGTKLEIK
The molecule B1 yielded an IC50 in assay [3] of 12.3 µg/mL.

B2: humanized CD47 single domain antibody (Nb1902) expressed from E. coli vector pMECS (VHH)
VHH: QVQLQESGGGLVQPGGSLRLSCAASGYAYTSDCMGWFRQTPGKGLEGVALIYTPGNSTNYADSVKGRFTISQDNSKSTVYLQMNSLRAEDTAMYYCAARRGACSLRLPFFYWGQGTLVTVSS
notes: also called humanized single domain antibody; not shown: C-terminal tag stretch from the pMECS vector (the HA tag used for detection and any other vector-encoded tag)
Regarding B2, the binding result in assay [4] and in assay [5] was “no binding” in each case.
